Laboratory results: the supplement of paper PMC9170038

Tested on: MS2 coat protein
Assay: apparent KD of MS2 coat protein; designed switch direction (-1 OFF switch, 1 ON switch): 1; higher = weaker reporter binding
Method in brief: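 Each step of the titration lasted 0.8–1.5 h at the lowest concentration and 10–20 min at the highest. The protein, SNAP-549-labelled MS2 coat protein, went from 0.7 or 1.5 nM doubling to 3 µM over RNA switches transcribed on Illumina chips by stalled E. coli RNA polymerase. Normalised cluster fluorescence was curve-fitted, and the per-design median over clusters is given as apparent KD.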

[1] = input ligand: microRNA oligo, concentration not stated
[2] = Eterna round: R95, input ligand: FMN 200 uM
[3] = Eterna round: R95, input ligand: microRNA oligo, concentration not stated
[4] = Eterna round: R95, input ligand: none

Sequence | apparent KD of MS2 coat protein (input ligand: FMN 200 uM) [nM] | apparent KD of MS2 coat protein [1] [nM] | apparent KD of MS2 coat protein (input ligand: none) [nM] | apparent KD of MS2 coat protein [2] [nM] | apparent KD of MS2 coat protein [3] [nM] | apparent KD of MS2 coat protein [4] [nM]
AAGAGGUCCGCAGGAUAUACCCGGCCUCGCCGGGUAGAAGGGUGAACCUCAUAACCCACCACACACAUGAGGAUCACCCAUGUA [Enisaon] (Eterna round: R96, puzzle: Same State NG 1) | 494 | 1.93 | 111 |  |  | 
AAGUAACAUGAGGAUCACCCAUGUGAGGUGAGCGUAGGAUAUCGAGGAGGAAGGGUGGAGCGAGAAGGACGAGAGG [JR_SS1_Sub099] (Eterna round: R96, puzzle: Same State 1) | 544 | 281 | 386 |  |  | 
AAGUAACAUGAGGAUCACCCAUGUGAGGUGAGCGUAGGAUAUCGAGGAGGAAGGGUGGAGCGAGAAGGACGAGAGG [JR_SS1_Sub099] (puzzle: Same State 1) |  |  |  | 375 | 189 | 471
AAGUAACAUGAGGAUCACCCAUGUGAGGUGAGCGUAGGAUAUCGAGGAGGUAGGGUAGGUCGAGAAGGACGAGAAG [JR_SS1_Sub095] (puzzle: Same State 1) |  |  |  | 323 | 210 | 700
AAUACAAAUAGUCAGGAUAUCAAAAAUAAGACAUGAGGAUCACCCAUGUAAUAAGUAAAAGUAAAUGAGAAGGGACAGGGUGAAA [JR_SS002_Sub401] (Eterna round: R96, puzzle: Same State 2) |  | 197 |  |  |  | 
AAUCCUGUCACAGGAUAUCCAAGGUAAACCCUCGGAGAAGGGUGAUAGUCUAACAAACACACACAUGAGGAUCACCCAUGUUAA [Usxeus] (Eterna round: R96, puzzle: Same State NG 1) | 52.4 | 40.1 | 83.6 |  |  | 
AAUUAAGAUCAAGGAUAUCACGUCGAAUAGACGUGAGAAGGUGAUCAUAACAUGAGGAUCACCCAUGUAUUACAUGAAUUAAUU [SSNG1/2-B1] (Eterna round: R96, puzzle: Same State NG 1) | 71.3 | 177 | 289 |  |  | 
AAUUUAAUACAUGAGGAUCACCCAUGUAAAUUAAUUAAGAUCAAGGAUAUCAGCUCGAUUAGAGCUGAGAAGGUGAUCACAUGU [SSNG3/19-A2] (Eterna round: R96, puzzle: Same State NG 3) |  | 307 |  |  |  | 
ACAAGCUUUUCUGCAUUGAAAGGUGGGAUACAUGAGGAUCACCCAUGUUUUUAUGAAAAUAAUGCUCCUCGUCUUAU [JR_SHM208A_Sub092] (puzzle: Sensor for hsa-mir-208a) |  |  |  | 214 | 50.3 | 243
ACAUGAGACUCAGGAUAUGUUGUACCUACAUGUGACAUGAGGAUCACCCAUGUGGUAAGUAUGAUACAGAAGGGAGAGAUAUGU [Equivalance 65 - Jieux - Same State NG 2] (Eterna round: R96, puzzle: Same State NG 2) | 20.5 | 22.1 | 43.6 |  |  | 
ACAUGAGAGAAAGGAUAUGUUGUACCUACAUGUGACAUGAGGAUCACCCAUGUGGUAAGUAUGAGACAGAAGGUUCAGAUAUGU [Equivalence 32 - Jieux - Same State NG 2] (Eterna round: R96, puzzle: Same State NG 2) | 20.4 | 51.1 | 65.7 |  |  | 
ACAUGAGAGUGAGGAUAUGCUGUACCUACAUGUGACAUGAGGAUCACCCAUGUGGUAAGUAUGACGCAGAAGGCACAGAUAUGU [Equivalance 78 - Jieux - Same State NG 2] (Eterna round: R96, puzzle: Same State NG 2) | 13.3 | 78.9 | 103 |  |  | 
ACGUGAGGCGCAGGAUAUACAUGAGGAUCACCCGUAGAAGGGCGCACCCAUAACAUGAGGAUCACCCAUGUUGUCCAUGUCCAU [Same State NG 1 S5] (Eterna round: R96, puzzle: Same State NG 1) | 226 | 158 | 241 |  |  | 
ACUCUCACAGUAGGAUAUGUAGGAUAUGCCUACAUGAGGAUCACCCAUGUAAACAUGGCAGAAGGAUAGAAGGACUUACAUGGG [pwkr ssNG2 2FMN + 1F5.4] (Eterna round: R96, puzzle: Same State NG 2) | 108 | 44.1 | 196 |  |  | 
AGAGGAGGAGCAGGAUAUGCGAAGAAGAAAGAGGUAGAAGGGCUCAUGGGAUGACAUGAGGAUCACCCAUGUACCGCCCGAGGA [AK SSNG1-V2-8.1] (Eterna round: R96, puzzle: Same State NG 1) | 11.5 | 46.4 | 297 |  |  | 
AGAGGAGGAGCAGGAUAUGCGAAGAAGAACGUGGUAGAAGGGCUCAUGCGAUGACAUGAGGAUCACCCAUGUACCUCGCGAGGA [AK SSNG1-V2-9] (Eterna round: R96, puzzle: Same State NG 1) | 414 | 130 | 186 |  |  | 
AGAUCAUGACGAGGAUAUCCGACAUGAGGAUCACCCAUGUAUGUCGGAGGACGGAAACGUCCAAAGGAGAAGGCGUCGUGGUCA [Mat - Same State NG 2 - JL mod - D37] (Eterna round: R96, puzzle: Same State NG 2) | 17.7 | 72.4 | 85.3 |  |  | 
AGAUCAUGACGAGGAUAUGCCACAUGAGGAUCACCCAUGUAUGUGGUAGGACGCGUACGUCCAAAGCAGAAGGCGUCGUGAUCA [Mat - Same State NG 2 - JL mod - D36] (Eterna round: R96, puzzle: Same State NG 2) | 21.5 | 37.6 | 47.9 |  |  | 
AGAUCAUGACGAGGAUAUGCCACAUGAGGAUCACCCAUGUAUGUGGUAGGACGGAAACGUCCAAAGCAGAAGGCGUCGUGGUCA [Mat - Same State NG 2 - JL mod - D35] (Eterna round: R96, puzzle: Same State NG 2) | 23.1 | 44.8 | 41.7 |  |  | 
AGAUCAUGACGAGGAUAUGGUACAUGAGGAUCACCCAUGUAUGUACCACGACGCGUACGUCGAAUCCAGAAGGCGUCAUGAUCA [Mat - Same State NG 2 - JL mod - D18] (Eterna round: R96, puzzle: Same State NG 2) | 21.6 | 92.8 | 150 |  |  | 
AGCGAAAUAAGCAAGGAUAUGUAAUUUGGCACAUGAGGAUCACCCAUGUCAAUCCAUUUUUUUGAACAGAAGGUGCAUUUUUUUU [ak second] (puzzle: Same State 2) |  |  |  | 48.6 | 53.5 | 45.4
AGCGAACAGUCCUCAAAGGCAACAUGAGGAUCACCCAUGUCAUAGGAUAUGCUAAAAGCUCAGUAGCAGAAGGAUGGAGGACUG [Edatusbe] (Eterna round: R96, puzzle: Same State NG 3) | 19.5 | 28.1 | 23.5 |  |  | 
AGCUAAUACGAAGGAUAUACUGACAUGAGGAUCACCCAUGUCUACAUGAUUUAUUGUGAUCACAUGUAGAAGGUCGUACUAACA [SameState NG2 #23] (Eterna round: R96, puzzle: Same State NG 2) | 26.8 | 62.3 | 79.8 |  |  | 
AGCUAGUACCGAGGAUAUACAUACAUGAGGAUCACCCAUGUAUACAUGAACAAUUGAGACUACAUGUAGAAGGCGGUACUAGCA [JL SSNG2 1.19] (Eterna round: R96, puzzle: Same State NG 2) |  | 37.4 |  |  |  | 
AGCUAUUACGAAGGAUAUUGUGACAUGAGGAUCACCCAUGUUUACAUGAUUAAUUGUGAUCACGUCGAGAAGGUUGUACUAACA [SameState NG2 #32] (Eterna round: R96, puzzle: Same State NG 2) | 24.3 | 27.3 | 30.2 |  |  | 
AGCUUCAAACUUUGCUCGUCGCGCCAGCGACAUGAGGAUCACCCAUGUGGGCGCAACCUCGUUAGCCCGAGGGCUCG [Labire] (puzzle: Sensor for hsa-mir-208a) |  |  |  | 27.1 | 14 | 29
AGGAAGGAGACUGAGGAUAUCGUUGAAAAGACAUGAGGAUCACCCAUGUGUAUAGGAUUGGAGAACGAGAAGGCAGAGGAGUGGA [JR_SS2_Sub044] (puzzle: Same State 2) |  |  |  | 29.2 | 33.3 | 37.5
